Reference: patent US20150056210A1 (published 2015)

Biological target: Spacer-GST
Assay: SPR (Biacore X-100)

B1: CRB0017_IgG4 (antibody, V domains shown)
VH: QVQLQQSGAELAKPGASVKMSCKASGYTFTSYWMHWVKQRPGQGLEWIGYINPSTGYTEYNQKFKDKATLTADKSSSTAYMQLGSLTSEDSAVYYCARGGYDDLGYWGQGTTLTVSS
VL: DIVITQDELSNPVTSGESVSISCRSSKSLLYKDGKTYLYWFLQRPGQSPQLPIYLMSTRASGVSDRFSGSGSGTDFTLEISRVKAEDVGVYYCQQLVEYPYTFGGGTKLEIK
Kd: 2.15 nM
